Test results reported in PMC8631079.

Legend:
[1] = target: GH10 (1) from PUL15 of Prevotella copri DSM18205 (extracellular endo-1,4-β-xylanase) (Prevotella copri DSM 18205); test: SEC; HiPrep 16/60 Sephacryl S-300 HR column, 0.5 mL/min, sodium phosphate 50 mM, NaCl 150 mM, pH 7.0; calibrated with molecular weight standards 20-700 kDa; native mass compared with the theoretical mass
[2] = target: GH43_1 from PUL15 of Prevotella copri DSM18205 (intracellular β-xylosidase / exo-β-xylanase) (Prevotella copri DSM 18205); test: as above

Substance: GH10 (1) from PUL15 of Prevotella copri DSM18205 (extracellular endo-1,4-β-xylanase) (enzyme)
- stoichiometry N [1]: 2

Substance: GH43_1 from PUL15 of Prevotella copri DSM18205 (intracellular β-xylosidase / exo-β-xylanase) (enzyme)
- stoichiometry N [2]: 2
